Assay results taken from patent US12337037B2, “Taxol conjugate compounds, pharmaceutical compositions comprising the same, and methods for their use” (N1 Life, Inc, priority 2021, dated 2025).
Read-outs that look alike come from different tables or passages of the source.

What was measured:
SKOV-3-GFP cells = test: Elimination of ascites; format: in vivo, mice; details: SKOV-3-GFP cells injected into the peritoneal cavity; Compound 3 9.6 mg/kg, Taxol 10 mg/kg
Experimental: Following the procedure described in Example 5, mice injected with SKOV-3-GFP cells (a cell suspension of 6×10^6/120 μL/mouse or 8×10^6/120 μL/mouse injected into the peritoneal cavity) were also studied for the formation of ascites. Mice were administered vehicle (PBS), Taxol (10 mg/kg), or Compound 3 (9.6 mg/kg).
FIG. 16 and FIG. 18 are images of mice administered vehicle following an injection of SKOV-3-GFP cells (6×10^6/120 μL/mouse or 8×10^6/120 μL/mouse, respectively). […] FIG. 17A and FIG. 17B are images of two mice administered Compound 3 (9.6 mg/kg, equimolar to 2.5 mg/kg Taxol) following an injection of SKOV GFP cells (6×10^6/120 μL/mouse).

Stability in buffer = format: physicochemical; details: for half-life at 5 μM: buffer solution, read-out: Mean T 1/2 (converted)
Experimental: Working solutions of Compound 5 (1 mM of) and Compound 3 (1 mM) were prepared. Buffer solution (199 μL) was prepared and divided into fourteen incubation tubes. The tubes were then pre-warmed at 37° C. for 15 minutes. The 1 mM Compound 5 working solution was added to seven incubation tubes (1 μL each) for a final concentration of 5 μM and the 1 mM Compound 3 working solution was added to seven incubation tubes (1 μL each) for a final concentration of 5 μM. For Compound 5, the final concentration of organic solvents was 0.5%. Each samples was incubated at 37° C. for 0, 4, 8, 24, 48, 72, or 120 hours. The assay was performed in duplicate. After incubation for 0, 4, 8, 24, 48, 72 or 120 hours, reactions were quenched by the addition of 1000 μL methanol (pre-cool treatment under 4° C.) with 2% FA containing internal standards. All samples were vortexed for 10 minutes. 150 μL of the supernatant from each sample was transferred to a new plate. 150 μL of pure water was added to each sample for analysis by LC-MS/MS (cooler temperature: 15° C.). All calculations were carried out using Microsoft Excel. Peak area ratios were determined from extracted ion chromatograms. Percent compounds remaining at each time point were calculated by the following equation: Remaining Percentaget min(%)=(Peak Area Ratiot min/Peak Area Ratio0 min)×100
Peak Area Ratiot min is peak area ratio of test compounds at t min; and
Peak Area Ratio0 min is peak area ratio of test compounds at zero time point.
The slope value, k, was determined by linear regression of the natural logarithm of the remaining percentage of the parent drug vs. incubation time curve.
The in vitro half-life (in vitro t1/2) was determined from the slope value: in vitro t1/2=(0.693/k) Appearance of Taxol concentration (nM)=Peak Area Ratio t min/Peak Area Ratio(Taxol: 5 μM)×5000% Appearance of Taxol=Peak Area Ratio min/Peak Area Ratio(Taxol: 5 μM)×100

[1] = In-life pharmacokinetics, single IP dose; details: CD-1 mice
Experimental: General Procedure: A single-dose study was conducted in CD-1 mice. Groups (12 animals in each group) were administered an intraperitoneal (IP) dose of either Taxol (10 mg/kg), Compound 3 (38.4 mg/kg), or Compound 5 (38.4 mg/kg). Serial or terminal plasma samples (n=3 per timepoint) were collected from study animals at pre-determined times post-dose. Each mouse was serial bled 2 times (orbital bleeds) and one terminal bleed. The samples were collected in pre-chilled tubes for all steps. Upon completion of the in-life phase, the samples were analyzed using LC-MS/MS.
Assay Procedures: For analysis of analytes in mouse plasma, a 50.0 μL aliquot of each study sample was extracted with protein precipitation using 200 μl of 5% formic acid in methanol. Internal standards were added by adding 25.0 μL methanol containing 250 ng/mL tolbutamide and 1000 ng/mL Taxol-d5.
For Compound 5 and Compound 3 analysis, following centrifugation at 4000 rpm for 10 minutes, 150 μL of the supernatant was transferred to a clean 96 well collection plate for LC-MS/MS analysis.
For Taxol analysis, following centrifugation at 4000 rpm for 10 minutes, 75.0 μL of the supernatant was transferred into a clean 96 well collection plate containing 75.0 μL of deionized water. The plate was then capped and vortexed at 1650 rpm for 3 minutes prior to LC-MS/MS analysis.
Preparation of Standards and Quality Controls: Calibration standards of Compound 3 in mouse plasma were prepared on wet ice in blank mouse plasma at concentrations of 5.00, 10.0, 50.0, 100, 200, 250, 450, and 500 ng/mL. The low quality control ([LQC], 15.0 ng/mL), medium quality control ([MQC], 120 ng/mL) and high quality control ([HQC], 400 ng/mL) were prepared in blank mouse plasma.
Calibration standards of Taxol in mouse plasma were prepared on wet ice in blank mouse plasma at concentrations of 2.50, 5.00, 25.0, 125, 625, 1250, 2250, and 2500 ng/mL. The LQC, (7.50 ng/mL), MQC (120 ng/mL), and HQC (2000 ng/mL) were prepared in blank mouse plasma.
Sample Analyses: Mouse plasma samples were received from the in-life and were stored in a freezer set to −80° C.
Study samples were analyzed in 2 batches. At a minimum, each batch included the following: one set of calibration standards, a matrix blank (blank mouse plasma), a control-zero sample (blank mouse plasma with internal standard), and duplicate QC samples at 3 concentration levels (low, medium, and high) in addition to the study samples. Within each batch, the study samples were bracketed by calibration standards or QC samples.
Data Acquisition and Processing: The LC-MS/MS data acquisition was performed on an Agilent 1290 Infinity II HPLC system coupled with an AB SCIEX API 6500+ mass spectrometer. Chromatograms were integrated using Analyst 1.6.3 software. A weighted (1/x2, x=concentration) linear regression was used to generate the calibration curves and the regression was performed using Analyst 1.6.3 software. The concentration of the analyte in the samples was calculated using the peak area ratios of analyte to internal standard based on the calibration curve.

[2] = analyte: Taxol, IP single dose, Cmpd 3 / Cmpd 5 38.4 mg/kg, Taxol 10 mg/kg
[3] = analyte: the administered conjugate, 38.4 mg/kg IP single dose

## CC(=O)O[C@H]1C(=O)[C@@]2(C)[C@H]([C@H](OC(=O)c3ccccc3)[C@]3(O)C[C@H](OC(=O)[C@H](O)[C@@H](NC(=O)c4ccccc4)c4ccccc4)C(C)=C1C3(C)C)[C@]1(OC(C)=O)CO[C@@H]1C[C@@H]2O [Taxol, paclitaxel]
SKOV-3-GFP cells
  formation of ascites: formation of malignant as cites

## CC(=O)N[C@H](CSSCCCC(=O)O[C@@H](C(=O)O[C@H]1C[C@@]2(O)[C@@H](OC(=O)c3ccccc3)[C@@H]3[C@]4(OC(C)=O)CO[C@@H]4C[C@H](O)[C@@]3(C)C(=O)[C@H](OC(C)=O)C(=C1C)C2(C)C)[C@@H](NC(=O)c1ccccc1)c1ccccc1)C(=O)N[C@H](CCCNC(=N)N)C(=O)N[C@H](CCCNC(=N)N)C(=O)N[C@H](CCCNC(=N)N)C(=O)N[C@H](CCCNC(=N)N)C(=O)N[C@H](CCCNC(=N)N)C(=O)N[C@H](CCCNC(=N)N)C(=O)N[C@H](CCCNC(=N)N)C(=O)N[C@H](CCCNC(=N)N)C(N)=O [Compound 5, Ac-D-Cysteine (paclitaxel-4-mercaptobutanoate)-D-Arginine8-NH2]
Stability in buffer; buffer pH 5.5, 37° C.
  half-life at 5 μM: 117 h
Stability in buffer; buffer pH 6.0, 37° C.
  half-life at 5 μM: 93.5 h
Stability in buffer; buffer pH 6.5, 37° C.
  half-life at 5 μM: 85.4 h
Stability in buffer; buffer pH 7.4, 37° C.
  half-life at 5 μM: 49.4 h
[1]; 38.4 mg/kg IP single dose
  Taxol/Cmpd AUC Ratio: 3.942
[1]; 38.4 mg/kg IP
  Cmax of parent compound, fold higher than that of Compound 3: over 100 fold
[1]; [2]
  AUMC0-t (h*h*nmol/L): 3274.99 h*h*nmol/L
[1]; [3]
  AUMC0-t (h*h*nmol/L): 830.67 h*h*nmol/L

## CC(=O)N[C@@H](CSSCCCC(=O)OC(C(=O)O[C@H]1C[C@@]2(O)[C@@H](OC(=O)c3ccccc3)[C@@H]3[C@]4(OC(C)=O)CO[C@@H]4C[C@H](O)[C@@]3(C)C(=O)[C@H](OC(C)=O)C(=C1C)C2(C)C)[C@@H](NC(=O)c1ccccc1)c1ccccc1)C(=O)N[C@H](CCCNC(=N)N)C(=O)N[C@H](CCCNC(=N)N)C(=O)N[C@H](CCCNC(=N)N)C(=O)N[C@H](CCCNC(=N)N)C(=O)N[C@H](CCCNC(=N)N)C(=O)N[C@H](CCCNC(=N)N)C(=O)N[C@H](CCCNC(=N)N)C(=O)N[C@H](CCCNC(=N)N)C(N)=O (stereo partly drawn) [Compound 3, Ac-L-Cysteine (paclitaxel-4-mercaptobutanoate)-D-Arginine8-NH2]
Stability in buffer; buffer pH 5.5
  Percent Increase of T1/2, Compound 3 over Compound 5: 6.05%
Stability in buffer; buffer pH 6.0
  Percent Increase of T1/2, Compound 3 over Compound 5: 6.36%
Stability in buffer; buffer pH 6.5
  Percent Increase of T1/2, Compound 3 over Compound 5: 8.01%
Stability in buffer; buffer pH 7.4
  Percent Increase of T1/2, Compound 3 over Compound 5: 10.67%
Stability in buffer; buffer pH 5.5, 37° C.
  half-life at 5 μM: 125 h
Stability in buffer; buffer pH 6.0, 37° C.
  half-life at 5 μM: 99.5 h
Stability in buffer; buffer pH 6.5, 37° C.
  half-life at 5 μM: 92.3 h
Stability in buffer; buffer pH 7.4, 37° C.
  half-life at 5 μM: 54.6 h
SKOV-3-GFP cells
  formation of ascites: No bloody ascites were observed
[1]; 38.4 mg/kg IP single dose
  Taxol/Cmpd AUC Ratio: 81.84
[1]; 38.4 mg/kg IP
  AUC ratio Taxol/compound, times higher than AUC ratio of Taxol/Compound 5: 20 times
  T1/2 of released Taxol, longer than that of Taxol released from Compound 5: 33.3%
[1]; [2]
  AUMC0-t (h*h*nmol/L): 72,372.302 h*h*nmol/L
[1]; [3]
  AUMC0-t (h*h*nmol/L): 26.304 h*h*nmol/L
